The subject of this data set is MS2 coat protein. Kind of data set: apparent KD of MS2 coat protein; designed switch direction (-1 OFF switch, 1 ON switch): -1; higher = weaker reporter binding. In outline:
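RNA switches sharing common flanks were transcribed by stalled E. coli RNA polymerase on Illumina chips. A doubling series of SNAP-549-labelled MS2 coat protein, from 0.7 or 1.5 nM to 3 µM, was applied in Tris-HCl pH 7.5 buffer with KCl, MgCl2, BSA, DTT, tRNA and Tween-20. Each step lasted 0.8–1.5 h at the bottom of the series and 10–20 min at the top. Normalised cluster fluorescence was curve-fitted, giving apparent KD as the per-design median over clusters.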

The mark [1] stands for this setting: Eterna round: R95, input ligand: FMN 200 uM.
Setting [2] is: Eterna round: R95, input ligand: microRNA oligo, concentration not stated.
Setting [3] is: Eterna round: R95, input ligand: none.
Setting [4] is: input ligand: microRNA oligo, concentration not stated.

For “AGUAGUAGUAUCCGGUCCUACAUGAGGAUCACCCAUGUAGCUAGACGUGCACGCGAUGCUCGUCAGACUACCAGAUG [salish99_TOv1_r3_045] (puzzle: Sensor v3, turn-off variant 1)”, the “apparent KD of MS2 coat protein” value was determined as 48.6 nM under setting [1], 45.1 nM under setting [2] and 59.5 nM under setting [3].
Take “AGUAGUUGUUUCCGUUCUUACAUGAGGAUCACCCAUGUUUCUUGUCGUGCUCGCGUUGCUCGUCAGACUACCAGAUG [salish99_TOv1_r3_060] (puzzle: Sensor v3, turn-off variant 1)”: the “apparent KD of MS2 coat protein” value under setting [1] is 51.1 nM, the “apparent KD of MS2 coat protein” value under setting [2] turned out to be 57.8 nM and the “apparent KD of MS2 coat protein” value under setting [3] worked out at 75.8 nM.
For “AGUAUAGUCCAUGGCCGCAAGCUUUUUACUUGUCUUACCACAUGAGGAUCACCCAUGUGACAUGGGCACCUUAUGAU [Sensor v3, turn-off variant 2 (MOD of Oranla v.4)] (puzzle: Sensor v3, turn-off variant 2)”, in that order: 20.4 nM, 34.3 nM and 19.6 nM.
For “AGUAUUCGAGGAUAUACGUGCCAAUGAUCCAUGAGACUCCUACAUGAGGAUCACCCAUGUAGAAGGCGAAAACC [Eternabot (L1) Solution 99] (Eterna round: R97, puzzle: Exclusion 2)”, the “apparent KD of MS2 coat protein” value runs as follows: (input ligand: FMN 200 uM) 19.1 nM; (input ligand: none) 15.9 nM.
In the case of “AGUCAGGCGGUAGGAUAUCCAAACCGAGUGACCCUUUCAUAACAUGAGGAUCACCCAUGUCGGUGGGAGAAGGGCCGUACGGCG [JL ViennaUCT Atra mod 2] (Eterna round: R96, puzzle: Exclusion NG 2)”, the “apparent KD of MS2 coat protein” value is, setting by setting: (input ligand: FMN 200 uM) 305 nM; under setting [4], 145 nM; (input ligand: none) 343 nM.
On to “AGUCCACAUGAGGAUCACCCAUGUCAGGAUAUACGCAAUACAAAAGAACCCAUCAAAAGUAGAAGGGACAGGGA [Getequ] (puzzle: Exclusion 1)”, for which the “apparent KD of MS2 coat protein” value under setting [1] was found to be 13.5 nM, the “apparent KD of MS2 coat protein” value under setting [2] amounted to 10 nM and the “apparent KD of MS2 coat protein” value under setting [3] turned out to be 9.06 nM.
In the case of “AGUCCUAGUCAAGGAUAUACACCGAAGAAAUACGUAGAAGGUGACAUGAGGAUCACCCAUGUAGGGACUCUGGAAACAGAGGAA [Arordi] (Eterna round: R96, puzzle: Exclusion NG 1)”, the “apparent KD of MS2 coat protein” value (input ligand: FMN 200 uM) was 161 nM, the “apparent KD of MS2 coat protein” value under setting [4] was 93.4 nM and the “apparent KD of MS2 coat protein” value (input ligand: none) turned out to be 218 nM.
“AGUCCUGAUGUUAGGAUAUGCAACUAGCCAUUGUAGCAGAAGGAACAUGAGGAUCACCCAUGUACAAAGACCCA [Xeonbera] (puzzle: Brourd's mod of Exclusion 4)”: the “apparent KD of MS2 coat protein” value under setting [2] stood at 26.6 nM.
For “AGUUCCUUUGUGAGGAUAUCAAUGAUAUAACUGUAUGAGAAGGCACAUGAGGAUCACCCAUGUUUGUUGCUGCA [Eternabot (L1) Solution 78] (Eterna round: R97, puzzle: Brourd's mod of Exclusion 4)”, the “apparent KD of MS2 coat protein” value is 106 nM (input ligand: FMN 200 uM) and 20.1 nM (input ligand: none).
For the sequence “AGUUGGCGAGGAUAUACAUGAGGAUCACCCAUGUGAAAUAUAAGAGUGAGGAAGAAAAGUAGAAGGCGCUGACA [Mat - Exclusion 3 - Mod of Salish D43] (puzzle: Exclusion 3)”, the “apparent KD of MS2 coat protein” value under setting [2] was found to be 80.4 nM.
For “AGUUGUUGCGUAGGAUAUGAGGAUCACCCAUAGUAGGAUAACGAAAGUGAAGGACUGAGGAUUACCCAGAAGGACGUGAUGACA [pwkr exNG2 2xF5 2xFMN.6] (Eterna round: R96, puzzle: Exclusion NG 2)”, the “apparent KD of MS2 coat protein” value (input ligand: FMN 200 uM) turned out to be 602 nM, the “apparent KD of MS2 coat protein” value under setting [4] is 234 nM and the “apparent KD of MS2 coat protein” value (input ligand: none) is 193 nM.
Turning to “AUAAAACAUGAGGAUCACCCAUGUCAGGAUAUACGACUCCAACCUAACAGCUUGGACCGUAGAAGGGACAAGGG [Exclusion 1 (MOD2.2 Esqu)] (Eterna round: R97, puzzle: Exclusion 1)”, the “apparent KD of MS2 coat protein” value is 91.6 nM (input ligand: FMN 200 uM) and 109 nM (input ligand: none).
Turning to “AUAAAACAUGUAGGAUAUGCGUAGCGAAGCUAUGCAGAAGGACAUGAGGAUCACCCAUGUCUUUCCGUCUGCGAACAGACGGAA [Mat - Exclusion NG 1 - Mod of JL - D44] (Eterna round: R96, puzzle: Exclusion NG 1)”, the “apparent KD of MS2 coat protein” value is, setting by setting: (input ligand: FMN 200 uM) 35.7 nM; under setting [4], 13.8 nM; (input ligand: none) 21 nM.
Turning to “AUAAAAGUAGGAUAUUGACUGAUCGACAUGAGGAUCACCCAUGUGGUGCUGUGCGGUAUUCAAGAAGGGCUAAAAU [Ceisusma] (puzzle: Exclusion 5)”, the “apparent KD of MS2 coat protein” value under setting [2] came to 20.4 nM.
Same read-out and setting: then “AUAAAGCGAGGAUAUACAUGAGGAUCACCCAUGUGGCAGCCAGGUAGGAGUGACGUCGGUAGAAGGCGCACCCU [Quleraer] (puzzle: Exclusion 3)”, with 24.2 nM.
Take “AUAAAGUCAGGAUAUCGAAGUGAGUGGAGAGGAGGGAGGUACGAGAAGGGACAUGAGGAUCACCCAUGUAGGAA [JR_Exclusion4)Sub006] (puzzle: Exclusion 4)”: the “apparent KD of MS2 coat protein” value by setting is: under setting [1], 25.5 nM; under setting [2], 24.2 nM; under setting [3], 21.9 nM.
As for “AUAACGUAGCGAGGAUAUACGCGAGAUCGUUGCGUAGAAGGUGUAUCGUUGGACUUGAGGAUCACCCAAGUGAUGAGUCCUUCC [Mutated MS2 EX1.20] (Eterna round: R96, puzzle: Exclusion NG 1)”, the “apparent KD of MS2 coat protein” value is, setting by setting: (input ligand: FMN 200 uM) 43.8 nM; under setting [4], 34.7 nM; (input ligand: none) 40.7 nM.
With “AUAAUGUGAGGAUAUCACGCCCAAAUAAAUGGGCGAAAUAAUGAGAAGGCACAUGAGGAUCACCCAUGUCCGAA [EX4 A.25] (Eterna round: R97, puzzle: Exclusion 4)”, the “apparent KD of MS2 coat protein” value amounted to 180 nM (input ligand: FMN 200 uM) and 33.5 nM (input ligand: none).
Regarding “AUAAUGUGAGGAUAUCACGGCCCGGUAAAUCCGGUAAACGAUGAGAAGGCACAUGAGGAUCACCCAUGUUCCUG [EX4 A.2] (Eterna round: R97, puzzle: Exclusion 4)”, the “apparent KD of MS2 coat protein” value came out at 45.7 nM (input ligand: FMN 200 uM) and 16.2 nM (input ligand: none).
As to “AUACUCGUUGUGAGGAUAUCGUUUUCUUUACGGAUCGAGAAGGCACAUGAGGAUCACCCAUGUUUGACGUGAAU [JR_BMOE4_Sub093] (puzzle: Brourd's mod of Exclusion 4)”, the “apparent KD of MS2 coat protein” value under setting [2] turned out to be 30.8 nM.
Turning to “AUAGAGUCAGGAUAUACAGGUGGAGGAAAGCAGCAUAAGGAGUAGAAGGGACAUGAGGAUCACCCAUGUAAGUG [JR_Exclu4_Sub058] (puzzle: Exclusion 4)”, the “apparent KD of MS2 coat protein” value under setting [1] worked out at 47.4 nM, the “apparent KD of MS2 coat protein” value under setting [2] turned out to be 62.3 nM and the “apparent KD of MS2 coat protein” value under setting [3] is 60.2 nM.
For the sequence “AUAGGGUCAGGAUAUACGAGCAGGAGGAUGGAGCGGAGGCGGUAGAAGGGACAUGAGGAUCACCCAUGUAAGAA [JR_Exclu4_Sub052] (puzzle: Exclusion 4)”, the “apparent KD of MS2 coat protein” value is 21.4 nM under setting [1], 16.3 nM under setting [2] and 19.2 nM under setting [3].
“AUAUAGAUGGUCAGGAUAUGCUAGUGAUAACAGUAGCAGAAGGGACAUGAGGAUCACCCAUGUGGAUAGCGCAC [Brourd's EX4 #6] (Eterna round: R97, puzzle: Brourd's mod of Exclusion 4)”: the “apparent KD of MS2 coat protein” value is, setting by setting: (input ligand: FMN 200 uM) 123 nM; (input ligand: none) 37.1 nM.
